Columns and labels:
[1] = test system: HeLa-A3 cells; experiment: S100P-enhanced cell migration, HeLa-A3; assay type: cell-based, human; details: HeLa-A3, doxycycline 1 µg/ml, 24 h
Source text: (§1) Cell migration rate (%) = M/G × 100.

[2] = test system: tubulin polymerisation in COS-7 S10 cells; experiment: In vivo tubulin polymerisation assay, COS-7 / COS-7 S10; assay type: cell-based, monkey
Protocol: HeLa and S100P-inducible HeLa, COS-7 and S100P-inducible COS-7 cells were routinely cultured with or without doxycycline (1 µg/ml) and treated with 33 µM nocodazole for 24 h to synchronise the cells. Then the nocodazole was washed away (First release) and the synchronised cells were cultured in normal medium for 4 h to allow them to complete cell division. The nocodazole was then added again for 4 h to dissociate all the MTs. After this time, nocodazole was again removed by extensive washings (Second release) and tubulin was allowed to polymerise in the interphase of the cell cycle for different times. The cells were treated with buffer (10 mM Tris–HCl, 150 mM KCl, pH 7.4, 2% (v/v) Triton X-100) and the Triton-X100-insoluble tubulins (representing the newly formed MTs) were solubilised in Sample Buffer and quantified by Western blotting. To test the effect of tubulin-derived peptides, 20 µM T-DIC, T-DLV, T-IMN and tag-peptide alone (Supplementary Table S3) in 0.25% (v/v) DMSO as solvent, as well as the solvent control 0.25% (v/v) DMSO were added immediately after the second release in Sample Buffer and quantified at the different time points by Western blotting.

[3] = test system: α, β-tubulins; experiment: Pulldown assay, His-S100P beads with COS-7 cell lysates; assay type: binding, monkey; details: 1 mM CaCl2 vs EGTA
Protocol: […] After brief sonication, the lysates were centrifuged at 15,000g for 30 min to remove insoluble components. The supernatants were then applied to His-S100P columns or control column with His-binding beads only. After extensive washings with 10 mM Tris–HCl, pH 7.4, 150 mM NaCl, 0.5% (v/v) Tween 20, the bound proteins were eluted with 300 mM imidazole and then subjected to Western blotting using mouse anti-S100P mAb and anti-tubulin antibodies (R&D Systems, Abingdon, U.K.).

[4] = test system: HeLa cells; details: inducible HeLa (range stated for Rama 37 and HeLa) ref [10],[37]; cited from earlier work
Source text: (§2) In our previous study, we reported that S100P enhances cell migration by binding to and affecting distribution of NMIIA filaments in HeLa and Rama 37 cells. We now sought to determine whether S100P overexpression could induce such changes in cells when NMIIA was absent. The monkey kidney COS-7 cells have been reported to lack NMIIA [28] and this was confirmed in comparison with its presence in human HeLa and rat Rama 37 cells (Figure 1A). We then generated three S100P-inducible COS-7 cell lines using doxycycline as the inducing agent, the largest increase being in clone S10 (Figure 1B ...

[5] = test system: Rama 37 cells; details: inducible Rama 37 (range stated for Rama 37 and HeLa) ref [10],[37]; cited from earlier work
Source text: as §2

[6] = test system: tubulin; experiment: Co-immunoprecipitation, COS-7 S10 lysates; assay type: binding, monkey; details: S100P-induced COS-7 S10 lysates, 0.5 mM CaCl2
Protocol: For co-immunoprecipitations, S100P-inducible COS-7 cells were incubated with 1 µg/ml doxycycline for 16 h and lysed in RIPA buffer (Thermo Fisher Scientific, Loughborough, U.K.) with 0.5 mM CaCl2. After sonication and centrifugation as described above, control antibody (rabbit IgG from Sigma), anti-tubulin or anti-S100P were added to three separate tubes containing 0.7 ml each of cell lysate and incubated overnight at 4°C. Then 100 µl Dynabeads® ProteinG (Thermo Fisher Scientific) were added to each tube and the contents incubated for 4 h at 4°C. After extensive washings with washing buffer (10 mM Tris–HCl, pH 7.4, 150 mM NaCl, 1% (v/v) Triton X-100, 0.2 mM sodium orthovanadate), the bound proteins were eluted with 0.1 M glycine pH 2.5 and then subjected to Western blotting using the paired antibodies together with a sample of the input and the last wash.

[7] = test system: HeLa-A3 cells; experiment: Cell adhesion assays, HeLa-A3; assay type: cell-based, human; details: HeLa A3, S100P induced vs uninduced, weak trypsin digestion, n = 3
Protocol: For kinetics of attachment either HeLa-A3 or COS-7 S10 cells were induced with 1 µg/ml doxycycline 48 h prior to experiment and 2 × 10^5 uninduced or induced cells in 1 ml were added to 24 well tissue culture dishes and allowed to adhere at 37°C. At the given time (30 min to 2 h) cells were washed 2× with PBS and detached with 250 µl 0.05% (w/v) trypsin in versene for 5 min at 37°C, neutralised in serum-containing media (SCM), counted and the percent of seeded cells recorded. For strength of adhesion, the same cells were seeded in 24 well tissue culture dishes so as to yield 80% confluence in 24 h. In all cases identical dishes were set up for test and control. After 24 h, wells were washed 2× and detached with 250 µl, 0.0125% (w/v) trypsin in versene for 5 min at 37°C. Wells were then carefully washed 2× to remove weak binders. Trypsin in versene (250 µl of 0.05% (w/v)) was then added to both test dish and control dish for 5 min to remove all cells from the well, neutralised with SCM and counted. The proportion of cells remaining after the weak digestion step was determined from the ratio of results from test and control plates. All assays were performed in triplicate.

[8] = test system: nonmuscle myosin (NM) isoforms; details: ref [10]; cited from earlier work
Source text: Overexpression of S100P promotes breast cancer metastasis in animals and elevated levels in primary breast cancers are associated with poor patient outcomes.

[9] = test system: Rama 37-T25 cells; experiment: S100P-enhanced cell migration, Rama 37-T25; assay type: cell-based, rat; details: Rama 37-T25, doxycycline 1 µg/ml, 24 h
Source text: as §1

[10] = test system: COS-7 cells; experiment: Living colour expression: YFP-S100P with CFP-EB3; assay type: cell-based, monkey; details: high YFP-S100P, 24 h
Protocol: S100P fused to yellow fluorescent protein (YFP), and EB3 fused to cyan fluorescent protein (CFP) (EB3-CFP) expression plasmids, pYFP-S100P and pCFP-EB3 were constructed, respectively. COS-7 cells were transiently transfected with the two plasmids and images were recorded using a LSM 5 confocal microscope 24 h after transfection. CFP: excitation = 436 nm, emission = 480 nm; YFP: excitation = 500 nm, emission = 520 nm.

B1: S100P: recombinant or doxycycline-induced overexpressed S100P protein (protein)
chain: MTELETAMGMIIDVFSRYSGSEGSTQTLTKGELKVLMEKELPGFLQSGKDKDAVDKLLKDLDANGDAQVDFSEFIVFVAAITSACHKYFEKAGLK
S100P-enhanced cell migration [1]: 3–4 folds | reduction in tubulin polymerisation on S100P induction ([2]; COS-7 S10, 4 h after second release, 1 µg/ml doxycycline): ~30% | near steady-state reduction in biochemical assembly of MTs ([2]; Figure 5E, COS-7 S10): 33% | α, β-tubulins captured by His-S100P [3]: detected in eluates, but only when 1 mM CaCl2 but not EGTA was originally present | fold increase in migration on S100P overexpression [4]: 3.2 to 4.8 fold | fold increase in migration on S100P overexpression [5]: 3.2 to 4.8 fold | complex with tubulin in immunoprecipitates [6]: immunoprecipitates produced with anti-S100P also contained tubulin | fold decrease in strength of adhesion [7]: 1.58 fold | order of interaction with NM isoforms [8]: IIA > IIC > IIB | S100P-enhanced cell migration [9]: 3–4 folds | distribution of peripheral MTs [10]: more dispersed distribution of cyan-labelled peripheral MTs

Source: publication PMC7108782, “Direct interaction of metastasis-inducing S100P protein with tubulin causes enhanced cell migration without changes in cell adhesion” (Biochemical Journal, 2020)
